Experimental data as given in patent publication US20260070987A1.

Target: equine FcRn (large alpha subunit p51) / equine beta-2-microglobulin complex, biotinylated (equine) (UniProt P30441)
Assay: SPR (Biacore), pH 6

Chain of UniProt P30441 (P30441 21-118, one chain of several): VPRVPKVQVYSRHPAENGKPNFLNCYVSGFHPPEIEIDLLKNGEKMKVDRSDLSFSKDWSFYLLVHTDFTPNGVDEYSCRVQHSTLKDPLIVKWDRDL

B1: equine IgG4 D312Q (antibody, part only; not given: variable domains, not shown: another chain or arm of the molecule)
constant: ASTTAPKVFPLASHSAATSGSTVALGCLVSSYFPEPVTVSWNSGALTSGVHTFPSVLQSSGLYSLSSMVTVPASSLKSQTYICNVAHPASSTKVDKKIVIKECNGGCPAECLQVGPSVFIFPPKPKDVLMISRTPTVTCVVVDVGHDFPDVQFNWYVDGVETHTATTEPKQEQFNSTYRVVSVLPIQHKQWLSGKEFKCKVNNKALPAPVERTISKPTGQPREPQVYVLAPHRDELSKNKVSVTCLVKDFYPTDIDIEWKSNGQPEPETKYSTTPAQLDSDGSYFLYSKLTVETNRWQQGTTFTCAVMHEALHNHYTEKSVSKSPGK
- Kd: 28.1 nM

B2: equine IgG4 D312S (antibody, part only; not given: variable domains, not shown: another chain or arm of the molecule)
constant: ASTTAPKVFPLASHSAATSGSTVALGCLVSSYFPEPVTVSWNSGALTSGVHTFPSVLQSSGLYSLSSMVTVPASSLKSQTYICNVAHPASSTKVDKKIVIKECNGGCPAECLQVGPSVFIFPPKPKDVLMISRTPTVTCVVVDVGHDFPDVQFNWYVDGVETHTATTEPKQEQFNSTYRVVSVLPIQHKSWLSGKEFKCKVNNKALPAPVERTISKPTGQPREPQVYVLAPHRDELSKNKVSVTCLVKDFYPTDIDIEWKSNGQPEPETKYSTTPAQLDSDGSYFLYSKLTVETNRWQQGTTFTCAVMHEALHNHYTEKSVSKSPGK
- Kd: 17.4 nM

B3: equine IgG4 Y436H (antibody, part only; not given: variable domains, not shown: another chain or arm of the molecule)
constant: ASTTAPKVFPLASHSAATSGSTVALGCLVSSYFPEPVTVSWNSGALTSGVHTFPSVLQSSGLYSLSSMVTVPASSLKSQTYICNVAHPASSTKVDKKIVIKECNGGCPAECLQVGPSVFIFPPKPKDVLMISRTPTVTCVVVDVGHDFPDVQFNWYVDGVETHTATTEPKQEQFNSTYRVVSVLPIQHKDWLSGKEFKCKVNNKALPAPVERTISKPTGQPREPQVYVLAPHRDELSKNKVSVTCLVKDFYPTDIDIEWKSNGQPEPETKYSTTPAQLDSDGSYFLYSKLTVETNRWQQGTTFTCAVMHEALHNHHTEKSVSKSPGK
- Kd: 61.6 nM

B4: equine IgG4 D312T (antibody, part only; not given: variable domains, not shown: another chain or arm of the molecule)
constant: ASTTAPKVFPLASHSAATSGSTVALGCLVSSYFPEPVTVSWNSGALTSGVHTFPSVLQSSGLYSLSSMVTVPASSLKSQTYICNVAHPASSTKVDKKIVIKECNGGCPAECLQVGPSVFIFPPKPKDVLMISRTPTVTCVVVDVGHDFPDVQFNWYVDGVETHTATTEPKQEQFNSTYRVVSVLPIQHKTWLSGKEFKCKVNNKALPAPVERTISKPTGQPREPQVYVLAPHRDELSKNKVSVTCLVKDFYPTDIDIEWKSNGQPEPETKYSTTPAQLDSDGSYFLYSKLTVETNRWQQGTTFTCAVMHEALHNHYTEKSVSKSPGK
- Kd: 28.7 nM

B5: equine IgG4 Y436I (antibody, part only; not given: variable domains, not shown: another chain or arm of the molecule)
constant: ASTTAPKVFPLASHSAATSGSTVALGCLVSSYFPEPVTVSWNSGALTSGVHTFPSVLQSSGLYSLSSMVTVPASSLKSQTYICNVAHPASSTKVDKKIVIKECNGGCPAECLQVGPSVFIFPPKPKDVLMISRTPTVTCVVVDVGHDFPDVQFNWYVDGVETHTATTEPKQEQFNSTYRVVSVLPIQHKDWLSGKEFKCKVNNKALPAPVERTISKPTGQPREPQVYVLAPHRDELSKNKVSVTCLVKDFYPTDIDIEWKSNGQPEPETKYSTTPAQLDSDGSYFLYSKLTVETNRWQQGTTFTCAVMHEALHNHITEKSVSKSPGK
- Kd: 12 nM

B6: equine IgG4 Y436A (antibody, part only; not given: variable domains, not shown: another chain or arm of the molecule)
constant: ASTTAPKVFPLASHSAATSGSTVALGCLVSSYFPEPVTVSWNSGALTSGVHTFPSVLQSSGLYSLSSMVTVPASSLKSQTYICNVAHPASSTKVDKKIVIKECNGGCPAECLQVGPSVFIFPPKPKDVLMISRTPTVTCVVVDVGHDFPDVQFNWYVDGVETHTATTEPKQEQFNSTYRVVSVLPIQHKDWLSGKEFKCKVNNKALPAPVERTISKPTGQPREPQVYVLAPHRDELSKNKVSVTCLVKDFYPTDIDIEWKSNGQPEPETKYSTTPAQLDSDGSYFLYSKLTVETNRWQQGTTFTCAVMHEALHNHATEKSVSKSPGK
- Kd: 21.6 nM

B7: equine IgG4 D312Y (antibody, part only; not given: variable domains, not shown: another chain or arm of the molecule)
constant: ASTTAPKVFPLASHSAATSGSTVALGCLVSSYFPEPVTVSWNSGALTSGVHTFPSVLQSSGLYSLSSMVTVPASSLKSQTYICNVAHPASSTKVDKKIVIKECNGGCPAECLQVGPSVFIFPPKPKDVLMISRTPTVTCVVVDVGHDFPDVQFNWYVDGVETHTATTEPKQEQFNSTYRVVSVLPIQHKYWLSGKEFKCKVNNKALPAPVERTISKPTGQPREPQVYVLAPHRDELSKNKVSVTCLVKDFYPTDIDIEWKSNGQPEPETKYSTTPAQLDSDGSYFLYSKLTVETNRWQQGTTFTCAVMHEALHNHYTEKSVSKSPGK
- Kd: 19.1 nM

B8: equine IgG4 D312R (antibody, part only; not given: variable domains, not shown: another chain or arm of the molecule)
constant: ASTTAPKVFPLASHSAATSGSTVALGCLVSSYFPEPVTVSWNSGALTSGVHTFPSVLQSSGLYSLSSMVTVPASSLKSQTYICNVAHPASSTKVDKKIVIKECNGGCPAECLQVGPSVFIFPPKPKDVLMISRTPTVTCVVVDVGHDFPDVQFNWYVDGVETHTATTEPKQEQFNSTYRVVSVLPIQHKRWLSGKEFKCKVNNKALPAPVERTISKPTGQPREPQVYVLAPHRDELSKNKVSVTCLVKDFYPTDIDIEWKSNGQPEPETKYSTTPAQLDSDGSYFLYSKLTVETNRWQQGTTFTCAVMHEALHNHYTEKSVSKSPGK
- Kd: 18.5 nM

B9: equine IgG4 D312W (antibody, part only; not given: Variable domains, not shown: another chain or arm of the molecule)
constant: ASTTAPKVFPLASHSAATSGSTVALGCLVSSYFPEPVTVSWNSGALTSGVHTFPSVLQSSGLYSLSSMVTVPASSLKSQTYICNVAHPASSTKVDKKIVIKECNGGCPAECLQVGPSVFIFPPKPKDVLMISRTPTVTCVVVDVGHDFPDVQFNWYVDGVETHTATTEPKQEQFNSTYRVVSVLPIQHKWWLSGKEFKCKVNNKALPAPVERTISKPTGQPREPQVYVLAPHRDELSKNKVSVTCLVKDFYPTDIDIEWKSNGQPEPETKYSTTPAQLDSDGSYFLYSKLTVETNRWQQGTTFTCAVMHEALHNHYTEKSVSKSPGK
- Kd: 12.1 nM

B10: equine IgG4 Y436D (antibody, part only; not given: variable domains, not shown: another chain or arm of the molecule)
constant: ASTTAPKVFPLASHSAATSGSTVALGCLVSSYFPEPVTVSWNSGALTSGVHTFPSVLQSSGLYSLSSMVTVPASSLKSQTYICNVAHPASSTKVDKKIVIKECNGGCPAECLQVGPSVFIFPPKPKDVLMISRTPTVTCVVVDVGHDFPDVQFNWYVDGVETHTATTEPKQEQFNSTYRVVSVLPIQHKDWLSGKEFKCKVNNKALPAPVERTISKPTGQPREPQVYVLAPHRDELSKNKVSVTCLVKDFYPTDIDIEWKSNGQPEPETKYSTTPAQLDSDGSYFLYSKLTVETNRWQQGTTFTCAVMHEALHNHDTEKSVSKSPGK
- Kd: 25.5 nM

B11: equine IgG4 Y436F (antibody, part only; not given: variable domains, not shown: another chain or arm of the molecule)
constant: ASTTAPKVFPLASHSAATSGSTVALGCLVSSYFPEPVTVSWNSGALTSGVHTFPSVLQSSGLYSLSSMVTVPASSLKSQTYICNVAHPASSTKVDKKIVIKECNGGCPAECLQVGPSVFIFPPKPKDVLMISRTPTVTCVVVDVGHDFPDVQFNWYVDGVETHTATTEPKQEQFNSTYRVVSVLPIQHKDWLSGKEFKCKVNNKALPAPVERTISKPTGQPREPQVYVLAPHRDELSKNKVSVTCLVKDFYPTDIDIEWKSNGQPEPETKYSTTPAQLDSDGSYFLYSKLTVETNRWQQGTTFTCAVMHEALHNHFTEKSVSKSPGK
- Kd: 12.6 nM

B12: equine IgG4 Y436G (antibody, part only; not given: variable domains, not shown: another chain or arm of the molecule)
constant: ASTTAPKVFPLASHSAATSGSTVALGCLVSSYFPEPVTVSWNSGALTSGVHTFPSVLQSSGLYSLSSMVTVPASSLKSQTYICNVAHPASSTKVDKKIVIKECNGGCPAECLQVGPSVFIFPPKPKDVLMISRTPTVTCVVVDVGHDFPDVQFNWYVDGVETHTATTEPKQEQFNSTYRVVSVLPIQHKDWLSGKEFKCKVNNKALPAPVERTISKPTGQPREPQVYVLAPHRDELSKNKVSVTCLVKDFYPTDIDIEWKSNGQPEPETKYSTTPAQLDSDGSYFLYSKLTVETNRWQQGTTFTCAVMHEALHNHGTEKSVSKSPGK
- Kd: 34.1 nM

B13: equine IgG4 Y436E (antibody, part only; not given: variable domains, not shown: another chain or arm of the molecule)
constant: ASTTAPKVFPLASHSAATSGSTVALGCLVSSYFPEPVTVSWNSGALTSGVHTFPSVLQSSGLYSLSSMVTVPASSLKSQTYICNVAHPASSTKVDKKIVIKECNGGCPAECLQVGPSVFIFPPKPKDVLMISRTPTVTCVVVDVGHDFPDVQFNWYVDGVETHTATTEPKQEQFNSTYRVVSVLPIQHKDWLSGKEFKCKVNNKALPAPVERTISKPTGQPREPQVYVLAPHRDELSKNKVSVTCLVKDFYPTDIDIEWKSNGQPEPETKYSTTPAQLDSDGSYFLYSKLTVETNRWQQGTTFTCAVMHEALHNHETEKSVSKSPGK
- Kd: 91.5 nM

B14: equine IgG4 D312V (antibody, part only; not given: variable domains, not shown: another chain or arm of the molecule)
constant: ASTTAPKVFPLASHSAATSGSTVALGCLVSSYFPEPVTVSWNSGALTSGVHTFPSVLQSSGLYSLSSMVTVPASSLKSQTYICNVAHPASSTKVDKKIVIKECNGGCPAECLQVGPSVFIFPPKPKDVLMISRTPTVTCVVVDVGHDFPDVQFNWYVDGVETHTATTEPKQEQFNSTYRVVSVLPIQHKVWLSGKEFKCKVNNKALPAPVERTISKPTGQPREPQVYVLAPHRDELSKNKVSVTCLVKDFYPTDIDIEWKSNGQPEPETKYSTTPAQLDSDGSYFLYSKLTVETNRWQQGTTFTCAVMHEALHNHYTEKSVSKSPGK
- Kd: 31.1 nM

B15: equine IgG4 Y436C (antibody, part only; not given: Variable domains, not shown: another chain or arm of the molecule)
constant: ASTTAPKVFPLASHSAATSGSTVALGCLVSSYFPEPVTVSWNSGALTSGVHTFPSVLQSSGLYSLSSMVTVPASSLKSQTYICNVAHPASSTKVDKKIVIKECNGGCPAECLQVGPSVFIFPPKPKDVLMISRTPTVTCVVVDVGHDFPDVQFNWYVDGVETHTATTEPKQEQFNSTYRVVSVLPIQHKDWLSGKEFKCKVNNKALPAPVERTISKPTGQPREPQVYVLAPHRDELSKNKVSVTCLVKDFYPTDIDIEWKSNGQPEPETKYSTTPAQLDSDGSYFLYSKLTVETNRWQQGTTFTCAVMHEALHNHCTEKSVSKSPGK
- Kd: 57 nM

B16: equine IgG1 T286V (antibody, part only; not given: Variable domains, not shown: another chain or arm of the molecule)
constant: ASTTAPKVFALAPGCGTTSDSTVALGCLVSGYFPEPVKVSWNSGSLTSGVHTFPSVLQSSGFYSLSSMVTVPASTWTSETYICNVVHAASNFKVDKRIEPIPDNHQKVCDMSKCPKCPAPELLGGPSVFIFPPNPKDTLMITRTPEVTCVVVDVSQENPDVKFNWYMDGVEVRVATTRPKEEQFNSTYRVVSVLRIQHQDWLSGKEFKCKVNNQALPQPIERTITKTKGRSQEPQVYVLAPHPDELSKSKVSVTCLVKDFYPPEINIEWQSNGQPELETKYSTTQAQQDSDGSYFLYSKLSVDRNRWQQGTTFTCGVMHEALHNHYTQKNVSKNPGK
- Kd: 16.2 nM
